Assay results taken from patent publication US20200199241A1 (Chugai, published 2020).

T1: human FcγRIIa(H) (human, UniProt P12318 36-217)
T1 construct: also called FcgRIIaH; FcγRIIa type H
T1 sequence: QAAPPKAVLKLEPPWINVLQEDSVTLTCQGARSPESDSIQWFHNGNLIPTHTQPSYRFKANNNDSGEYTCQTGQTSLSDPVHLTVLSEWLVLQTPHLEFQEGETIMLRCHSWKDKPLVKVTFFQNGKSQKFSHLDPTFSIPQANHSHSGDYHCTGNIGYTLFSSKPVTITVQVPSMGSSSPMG

T2: human FcγRIIa(R) (human, UniProt P12318 36-217)
T2 construct: also called FcgRIIaR; FcγRIIa type R
T2 chain: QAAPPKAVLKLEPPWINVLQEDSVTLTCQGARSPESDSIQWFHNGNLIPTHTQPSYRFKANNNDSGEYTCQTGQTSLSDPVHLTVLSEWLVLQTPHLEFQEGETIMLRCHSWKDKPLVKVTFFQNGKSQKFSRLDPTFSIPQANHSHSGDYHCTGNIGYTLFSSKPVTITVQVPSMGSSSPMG

T3: human FcγRIIb (human, UniProt P31994 43-217, limits assumed)
T3 construct: also called FcgRIIb
T3 sequence: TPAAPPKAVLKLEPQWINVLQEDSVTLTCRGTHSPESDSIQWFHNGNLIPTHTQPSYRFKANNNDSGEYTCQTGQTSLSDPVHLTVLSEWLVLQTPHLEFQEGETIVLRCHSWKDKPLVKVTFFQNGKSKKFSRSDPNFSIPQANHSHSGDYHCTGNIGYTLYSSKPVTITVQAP


Columns and labels:
Assay in all cases: SPR (Biacore);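 note: antibody variants captured on sensor chip, Fcγ receptor flowed over at 25 °C, bound receptor normalized to amount of captured antibody, expressed relative to reference antibody set as 100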
human FcγRIIIa(F) = molecular target: T4, human FcγRIIIa(F) (human, UniProt P08637 17-208, limits assumed)
T4 construct: also called FcgRIIIaF; allotype F158
Description: (§1) Interaction between each modified antibody and Fcγ receptor prepared in the manner described above was analyzed using the BIACORE™ T100 surface plasmon resonance system (GE Healthcare), BIACORE™ T200 surface plasmon resonance system (GE Healthcare), BIACORE™ A100 surface plasmon resonance system or BIACORE™ 4000 surface plasmon resonance system. HBS-EP+ (GE Healthcare) was used for the running buffer, and measurements were carried out at 25° C. The chips used were chips in which antigen peptides, Protein A (Thermo Scientific), Protein A/G (Thermo Scientific) or Protein L (ACTIGEN® protein (Alltech or BioVision) were immobilized on the Series S Sensor Chip CMS (GE Healthcare) or Series S Sensor Chip CM4 (GE Healthcare) by amine coupling, or chips in which preliminarily biotinylated antigen peptides were allowed to interact and then immobilized on the Series S Sensor Chip SA (certified) (GE Healthcare). The target antibodies were captured on these sensor chips, Fcγ receptor diluted with the running buffer was allowed to interact, followed by measurement of the amount of bound antibody. The amounts bound were compared between antibodies. However, since the amount of Fcγ receptor bound depends on the amount of captured antibody, the values used for comparison were first corrected by dividing the amount of Fcγ receptor bound by the captured amount of each antibody. Through reaction with 10 mM glycine-HCl at pH 1.5, the sensor chips were regenerated by washing off antibody captured on the sensor chips and used repeatedly.
(§2) Binding strength was evaluated according to the following method based on the results of analyzing the interaction with each FcγR. […] That value was then further multiplied by 100, and the resulting value was used as an indicator of relative binding activity to each FcγR.

human FcγRIIa(H) = molecular target: T1, human FcγRIIa(H)
Description: as §1, §2

human FcγRIIa(R) = molecular target: T2, human FcγRIIa(R)
Description: as §1, §2

human FcγRIIb = molecular target: T3, human FcγRIIb
Description: as §1, §2

human FcγRIa = molecular target: T5, human FcγRIa (human, UniProt P12314 16-292, limits assumed)
T5 construct: also called FcgRIa; FcγRI (CD64)
T5 sequence (P12314 16-292 limits assumed): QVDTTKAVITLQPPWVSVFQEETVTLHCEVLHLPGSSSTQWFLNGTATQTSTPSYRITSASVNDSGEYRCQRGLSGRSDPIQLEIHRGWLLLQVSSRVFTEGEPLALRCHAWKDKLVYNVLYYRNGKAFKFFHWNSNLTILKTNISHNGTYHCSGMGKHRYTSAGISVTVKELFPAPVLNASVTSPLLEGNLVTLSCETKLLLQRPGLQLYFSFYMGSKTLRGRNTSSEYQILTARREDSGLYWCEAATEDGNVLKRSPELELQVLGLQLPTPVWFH
Description: as §1, §2

T4 sequence (P08637 other isoform, or with tags, fused parts or gaps limits assumed): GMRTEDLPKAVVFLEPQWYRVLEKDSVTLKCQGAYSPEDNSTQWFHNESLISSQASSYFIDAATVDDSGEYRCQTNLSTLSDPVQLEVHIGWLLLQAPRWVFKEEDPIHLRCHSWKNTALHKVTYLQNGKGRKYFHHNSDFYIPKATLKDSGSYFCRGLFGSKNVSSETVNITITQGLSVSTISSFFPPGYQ

Row | relative binding activity (human FcγRIIIa(F)) | relative binding activity (human FcγRIIa(H)) | relative binding activity (human FcγRIIa(R)) | relative binding activity (human FcγRIIb) | relative binding activity (human FcγRIa) | Binder
1 | 1 % of GpH7-B3/GpL16-k0 | 23 % of GpH7-B3/GpL16-k0 | 20 % of GpH7-B3/GpL16-k0 | 4 % of GpH7-B3/GpL16-k0 | 18 % of GpH7-B3/GpL16-k0 | GpH7-B3 variant G236L/GpL16-k0 (antibody, human IgG1, copies: 2 + 2) heavy: not shown light: DIVMTQSPLSLPVTPGEPASISCQASESLVHSNRNTYLHWYLQKPGQSPQLLIYKVSNRFSGVPDRFSGSGSGTDFTLKISRVEAEDVGVYYCSQNTHVPPTFGQGTKVEIE
2 | 7 % of GpH7-B3/GpL16-k0 | 91 % of GpH7-B3/GpL16-k0 | 32 % of GpH7-B3/GpL16-k0 | 6 % of GpH7-B3/GpL16-k0 | 34 % of GpH7-B3/GpL16-k0 | GpH7-B3 variant G236H/GpL16-k0 (antibody, human IgG1, copies: 2 + 2) heavy: not shown light: DIVMTQSPLSLPVTPGEPASISCQASESLVHSNRNTYLHWYLQKPGQSPQLLIYKVSNRFSGVPDRFSGSGSGTDFTLKISRVEAEDVGVYYCSQNTHVPPTFGQGTKVEIE
3 | 29 % of GpH7-B3/GpL16-k0 | 48 % of GpH7-B3/GpL16-k0 | 33 % of GpH7-B3/GpL16-k0 | 19 % of GpH7-B3/GpL16-k0 | 93 % of GpH7-B3/GpL16-k0 | GpH7-B3 variant E2698/GpL16-k0 (antibody, human IgG1, read as E269S (misprint of S as 8); copies: 2 + 2) heavy: not shown light: DIVMTQSPLSLPVTPGEPASISCQASESLVHSNRNTYLHWYLQKPGQSPQLLIYKVSNRFSGVPDRFSGSGSGTDFTLKISRVEAEDVGVYYCSQNTHVPPTFGQGTKVEIE
4 | 24 % of GpH7-B3/GpL16-k0 | 68 % of GpH7-B3/GpL16-k0 | 23 % of GpH7-B3/GpL16-k0 | 15 % of GpH7-B3/GpL16-k0 | 81 % of GpH7-B3/GpL16-k0 | GpH7-B3 variant G236F/GpL16-k0 (antibody, human IgG1, copies: 2 + 2) heavy: not shown light: DIVMTQSPLSLPVTPGEPASISCQASESLVHSNRNTYLHWYLQKPGQSPQLLIYKVSNRFSGVPDRFSGSGSGTDFTLKISRVEAEDVGVYYCSQNTHVPPTFGQGTKVEIE
5 | 9 % of GpH7-B3/GpL16-k0 | 42 % of GpH7-B3/GpL16-k0 | 23 % of GpH7-B3/GpL16-k0 | 14 % of GpH7-B3/GpL16-k0 | 70 % of GpH7-B3/GpL16-k0 | GpH7-B3 variant G236M/GpL16-k0 (antibody, human IgG1, copies: 2 + 2) heavy: not shown light: DIVMTQSPLSLPVTPGEPASISCQASESLVHSNRNTYLHWYLQKPGQSPQLLIYKVSNRFSGVPDRFSGSGSGTDFTLKISRVEAEDVGVYYCSQNTHVPPTFGQGTKVEIE

More lines, now with the values behind:

Row | Binder | relative binding activity (human FcγRIIIa(F)) | relative binding activity (human FcγRIIa(H)) | relative binding activity (human FcγRIIa(R)) | relative binding activity (human FcγRIIb) | relative binding activity (human FcγRIa)
6 | GpH7-B3 variant E269A/GpL16-k0 (antibody, human IgG1, copies: 2 + 2) heavy: not shown light: DIVMTQSPLSLPVTPGEPASISCQASESLVHSNRNTYLHWYLQKPGQSPQLLIYKVSNRFSGVPDRFSGSGSGTDFTLKISRVEAEDVGVYYCSQNTHVPPTFGQGTKVEIE | 28 % of GpH7-B3/GpL16-k0 | 51 % of GpH7-B3/GpL16-k0 | 20 % of GpH7-B3/GpL16-k0 | 13 % of GpH7-B3/GpL16-k0 | 93 % of GpH7-B3/GpL16-k0
7 | GpH7-B3 variant E269G/GpL16-k0 (antibody, human IgG1, copies: 2 + 2) heavy: not shown light: DIVMTQSPLSLPVTPGEPASISCQASESLVHSNRNTYLHWYLQKPGQSPQLLIYKVSNRFSGVPDRFSGSGSGTDFTLKISRVEAEDVGVYYCSQNTHVPPTFGQGTKVEIE | 27 % of GpH7-B3/GpL16-k0 | 46 % of GpH7-B3/GpL16-k0 | 38 % of GpH7-B3/GpL16-k0 | 25 % of GpH7-B3/GpL16-k0 | 94 % of GpH7-B3/GpL16-k0
8 | GpH7-B3 variant E269L/GpL16-k0 (antibody, human IgG1, copies: 2 + 2) heavy: not shown light: DIVMTQSPLSLPVTPGEPASISCQASESLVHSNRNTYLHWYLQKPGQSPQLLIYKVSNRFSGVPDRFSGSGSGTDFTLKISRVEAEDVGVYYCSQNTHVPPTFGQGTKVEIE | 10 % of GpH7-B3/GpL16-k0 | 40 % of GpH7-B3/GpL16-k0 | 20 % of GpH7-B3/GpL16-k0 | 12 % of GpH7-B3/GpL16-k0 | 98 % of GpH7-B3/GpL16-k0
9 | GpH7-B3 variant E269P/GpL16-k0 (antibody, human IgG1, copies: 2 + 2) heavy: not shown light: DIVMTQSPLSLPVTPGEPASISCQASESLVHSNRNTYLHWYLQKPGQSPQLLIYKVSNRFSGVPDRFSGSGSGTDFTLKISRVEAEDVGVYYCSQNTHVPPTFGQGTKVEIE | 14 % of GpH7-B3/GpL16-k0 | 33 % of GpH7-B3/GpL16-k0 | 34 % of GpH7-B3/GpL16-k0 | 26 % of GpH7-B3/GpL16-k0 | 93 % of GpH7-B3/GpL16-k0
10 | GpH7-B3 variant E269Q/GpL16-k0 (antibody, human IgG1, copies: 2 + 2) heavy: not shown light: DIVMTQSPLSLPVTPGEPASISCQASESLVHSNRNTYLHWYLQKPGQSPQLLIYKVSNRFSGVPDRFSGSGSGTDFTLKISRVEAEDVGVYYCSQNTHVPPTFGQGTKVEIE | 38 % of GpH7-B3/GpL16-k0 | 64 % of GpH7-B3/GpL16-k0 | 24 % of GpH7-B3/GpL16-k0 | 13 % of GpH7-B3/GpL16-k0 | 96 % of GpH7-B3/GpL16-k0
11 | GpH7-B3 variant E269M/GpL16-k0 (antibody, human IgG1, copies: 2 + 2) heavy: not shown light: DIVMTQSPLSLPVTPGEPASISCQASESLVHSNRNTYLHWYLQKPGQSPQLLIYKVSNRFSGVPDRFSGSGSGTDFTLKISRVEAEDVGVYYCSQNTHVPPTFGQGTKVEIE | 20 % of GpH7-B3/GpL16-k0 | 50 % of GpH7-B3/GpL16-k0 | 23 % of GpH7-B3/GpL16-k0 | 15 % of GpH7-B3/GpL16-k0 | 98 % of GpH7-B3/GpL16-k0
12 | GpH7-B3 variant E269N/GpL16-k0 (antibody, human IgG1, copies: 2 + 2) heavy: not shown light: DIVMTQSPLSLPVTPGEPASISCQASESLVHSNRNTYLHWYLQKPGQSPQLLIYKVSNRFSGVPDRFSGSGSGTDFTLKISRVEAEDVGVYYCSQNTHVPPTFGQGTKVEIE | 21 % of GpH7-B3/GpL16-k0 | 31 % of GpH7-B3/GpL16-k0 | 24 % of GpH7-B3/GpL16-k0 | 15 % of GpH7-B3/GpL16-k0 | 90 % of GpH7-B3/GpL16-k0
13 | GpH7-B3 variant E269V/GpL16-k0 (antibody, human IgG1, copies: 2 + 2) heavy: not shown light: DIVMTQSPLSLPVTPGEPASISCQASESLVHSNRNTYLHWYLQKPGQSPQLLIYKVSNRFSGVPDRFSGSGSGTDFTLKISRVEAEDVGVYYCSQNTHVPPTFGQGTKVEIE | 12 % of GpH7-B3/GpL16-k0 | 35 % of GpH7-B3/GpL16-k0 | 16 % of GpH7-B3/GpL16-k0 | 10 % of GpH7-B3/GpL16-k0 | 92 % of GpH7-B3/GpL16-k0
14 | GpH7-B3 variant E269T/GpL16-k0 (antibody, human IgG1, copies: 2 + 2) heavy: not shown light: DIVMTQSPLSLPVTPGEPASISCQASESLVHSNRNTYLHWYLQKPGQSPQLLIYKVSNRFSGVPDRFSGSGSGTDFTLKISRVEAEDVGVYYCSQNTHVPPTFGQGTKVEIE | 26 % of GpH7-B3/GpL16-k0 | 39 % of GpH7-B3/GpL16-k0 | 35 % of GpH7-B3/GpL16-k0 | 19 % of GpH7-B3/GpL16-k0 | 93 % of GpH7-B3/GpL16-k0
15 | GpH7-B3 variant E269R/GpL16-k0 (antibody, human IgG1, copies: 2 + 2) heavy: not shown light: DIVMTQSPLSLPVTPGEPASISCQASESLVHSNRNTYLHWYLQKPGQSPQLLIYKVSNRFSGVPDRFSGSGSGTDFTLKISRVEAEDVGVYYCSQNTHVPPTFGQGTKVEIE | 7 % of GpH7-B3/GpL16-k0 | 13 % of GpH7-B3/GpL16-k0 | 2 % of GpH7-B3/GpL16-k0 | 0 % of GpH7-B3/GpL16-k0 | 72 % of GpH7-B3/GpL16-k0
16 | GpH7-B3 variant E269Y/GpL16-k0 (antibody, human IgG1, copies: 2 + 2) heavy: not shown light: DIVMTQSPLSLPVTPGEPASISCQASESLVHSNRNTYLHWYLQKPGQSPQLLIYKVSNRFSGVPDRFSGSGSGTDFTLKISRVEAEDVGVYYCSQNTHVPPTFGQGTKVEIE | 14 % of GpH7-B3/GpL16-k0 | 43 % of GpH7-B3/GpL16-k0 | 21 % of GpH7-B3/GpL16-k0 | 13 % of GpH7-B3/GpL16-k0 | 97 % of GpH7-B3/GpL16-k0
17 | GpH7-B3 variant E269F/GpL16-k0 (antibody, human IgG1, copies: 2 + 2) heavy: not shown light: DIVMTQSPLSLPVTPGEPASISCQASESLVHSNRNTYLHWYLQKPGQSPQLLIYKVSNRFSGVPDRFSGSGSGTDFTLKISRVEAEDVGVYYCSQNTHVPPTFGQGTKVEIE | 10 % of GpH7-B3/GpL16-k0 | 41 % of GpH7-B3/GpL16-k0 | 19 % of GpH7-B3/GpL16-k0 | 13 % of GpH7-B3/GpL16-k0 | 99 % of GpH7-B3/GpL16-k0
